Experiment [1] deals with HLA-DR2 (DRB1*1501) on antigen presenting cells (MGAR, L466) (human). Description: cell-based or functional assay.
Experiment [2] has as its target T1, soluble recombinant HLA-DR2 molecules (MHC class II HLA-DR2 protein) (human).
T1 construct: Soluble, empty protein from Drosophila S2 cells, captured on plates by antibody LB3.1; also called MHC class II DR2 protein; recombinant HLA-DR2 protein
The experiment in a line: competition ELISA on soluble HLA-DR2; competitor biotinylated Cop 1 (1.5 µM).

A value given as a limit tells only on which side of the number the result lay.

Turning to AAEKYAAYAAAAAAA [synthetic peptide #55], the “Inhibition of IL-2 production (%), Hy1B” value in experiment [1] was 30%. In addition, the half-inhibitory concentration (IC50) in experiment [2] was above 1 mM.

AAKAYEAYAAAAAAA [synthetic peptide #65]: the “Inhibition of IL-2 production (%), Hy1B” value in experiment [1] was 22%. Further, the IC50 in experiment [2] was above 1 mM.

For AEKAAAAYAAAAAAA [synthetic peptide #49], in experiment [1], the “Inhibition of IL-2 production (%), Hy1B” value came out at 36%. In experiment [2], the IC50 was above 1 mM.

In the case of EEAAYAAYKAAAAAA [synthetic peptide #90], in experiment [1], the “Inhibition of IL-2 production (%), Hy1B” value turned out to be 22%. For the same molecule, the IC50 in experiment [2] was above 1 mM.

On to EAAEYAAYKAAAAAA [synthetic peptide #89], for which, in experiment [1], the “Inhibition of IL-2 production (%), Hy1B” value is 41%. Also, the IC50 in experiment [2] is above 1 mM.

For AAEKYEAYAAAAAAA [synthetic peptide #69], in experiment [1], the “Inhibition of IL-2 production (%), Hy1B” value came to 45%. The IC50 in experiment [2] is above 1 mM.

As for AEKEYAAAAAAAAAA [synthetic peptide #40], the “Inhibition of IL-2 production (%), Hy1B” value in experiment [1] is 22%. For the same molecule, the 50% inhibitory concentration (IC50) in experiment [2] was above 1 mM.

Consider AEKKYAAYAAAAAAA [synthetic peptide #54], for which the “Inhibition of IL-2 production (%), Hy1B” value in experiment [1] was 38%. The half-inhibitory concentration (IC50) in experiment [2] is above 1 mM.

In the case of AKEAYAAAAAAAAAA [synthetic peptide #39], the “Inhibition of IL-2 production (%), Hy1B” value in experiment [1] was 32%. In addition, in experiment [2], the half-inhibitory concentration (IC50) is above 1 mM.

For the molecule AKAEAAAYAAAAAAA [synthetic peptide #48], the “Inhibition of IL-2 production (%), Hy1B” value in experiment [1] was 27%. Besides, in experiment [2], the IC50 was above 1 mM.

EKAAYAAAAAAAAAA [synthetic peptide #44]: the “Inhibition of IL-2 production (%), Hy1B” value in experiment [1] was 0%. For the same molecule, the 50% inhibitory concentration (IC50) in experiment [2] is above 1 mM.

For AEEKYAAYKAAAAAA [synthetic peptide #83], the “Inhibition of IL-2 production (%), Hy1B” value in experiment [1] stood at 43%. Moreover, the 50% inhibitory concentration (IC50) in experiment [2] is above 1 mM.

On to AEEAYAAYKAAAAAA [synthetic peptide #80], for which the “Inhibition of IL-2 production (%), Hy1B” value in experiment [1] amounted to 30%. The 50% inhibitory concentration (IC50) in experiment [2] is above 1 mM.

Take AAKEYAAYKAAAAAA [synthetic peptide #84]: in experiment [1], the “Inhibition of IL-2 production (%), Hy1B” value was 42%. Besides, the concentration for half-maximal inhibition (IC50) in experiment [2] is above 1 mM.

AEEKYAAYAAAAAAA [synthetic peptide #56]: the “Inhibition of IL-2 production (%), Hy1B” value in experiment [1] came to 16%. For the same molecule, the IC50 in experiment [2] was above 1 mM.

AAEKVAAAAAAAAAA [synthetic peptide #114]: the “Inhibition of IL-2 production (%), Hy1B” value in experiment [1] was 34%. Besides, the IC50 in experiment [2] was above 1 mM.

For AEAKYEAYAAAAAAA [synthetic peptide #67], the “Inhibition of IL-2 production (%), Hy1B” value in experiment [1] amounted to 41%. Further, the half-inhibitory concentration (IC50) in experiment [2] was above 1 mM.

Regarding AAAKVAAAAAAAAAA [synthetic peptide #116], the “Inhibition of IL-2 production (%), Hy1B” value in experiment [1] stood at 30%. For the same molecule, the IC50 in experiment [2] is above 1 mM.

Consider EAKAYAAYKAAAAAA [synthetic peptide #86], for which the “Inhibition of IL-2 production (%), Hy1B” value in experiment [1] turned out to be 29%. Besides, the IC50 in experiment [2] was above 1 mM.

As for EKKAYAAAAAAAAAA [synthetic peptide #41], the “Inhibition of IL-2 production (%), Hy1B” value in experiment [1] came out at 7%. Moreover, in experiment [2], the half-inhibitory concentration (IC50) is above 1 mM.

Consider EEAKYAAYKAAAAAA [synthetic peptide #91], for which the “Inhibition of IL-2 production (%), Hy1B” value in experiment [1] amounted to 54%. Also, in experiment [2], the IC50 is above 1 mM.

As for AAEKYAAYKAAAAAA [synthetic peptide #77], the “Inhibition of IL-2 production (%), Hy1B” value in experiment [1] was determined as 61%. For the same molecule, the IC50 in experiment [2] is above 1 mM.

In the case of AAAEYAAYKAAAAAA [synthetic peptide #76], in experiment [1], the “Inhibition of IL-2 production (%), Hy1B” value came to 52%. Besides, in experiment [2], the IC50 was above 1 mM.

As to AKEEYAAYKAAAAAA [synthetic peptide #82], the “Inhibition of IL-2 production (%), Hy1B” value in experiment [1] worked out at 47%. Also, in experiment [2], the half-inhibitory concentration (IC50) was above 1 mM.

On to AAAKYAAAAAAAAAA [synthetic peptide #115], for which the “Inhibition of IL-2 production (%), Hy1B” value in experiment [1] was found to be 25%. Further, in experiment [2], the half-maximal inhibitory concentration (IC50) is above 1 mM.

As for AKAEYAAYKAAAAAA [synthetic peptide #81], the “Inhibition of IL-2 production (%), Hy1B” value in experiment [1] was 28%. Moreover, the IC50 in experiment [2] was above 1 mM.

Turning to KEKAAAAYAAAAAAA [synthetic peptide #47], in experiment [1], the “Inhibition of IL-2 production (%), Hy1B” value is 13%. The IC50 in experiment [2] is above 1 mM.

As for EAAKYAAYKAAAAAA [synthetic peptide #85], the “Inhibition of IL-2 production (%), Hy1B” value in experiment [1] came to 25%. For the same molecule, the IC50 in experiment [2] was above 1 mM.

On to AKEKYAAYAAAAAAA [synthetic peptide #63], for which, in experiment [1], the “Inhibition of IL-2 production (%), Hy1B” value is 29%. Moreover, the half-inhibitory concentration (IC50) in experiment [2] is above 1 mM.

Turning to EKEAAAAYAAAAAAA [synthetic peptide #46], the “Inhibition of IL-2 production (%), Hy1B” value in experiment [1] worked out at 0%. In addition, the IC50 in experiment [2] was above 1 mM.

Turning to AEAKYAAYAAAAAAA [synthetic peptide #60], in experiment [1], the “Inhibition of IL-2 production (%), Hy1B” value amounted to 0%. For the same molecule, the IC50 in experiment [2] is above 1 mM.

For EKEAYAAYAAAAAAA [synthetic peptide #73], in experiment [1], the “Inhibition of IL-2 production (%), Hy1B” value was 23%. The IC50 in experiment [2] is above 1 mM.

AKEAYAAYKAAAAAA [synthetic peptide #78]: in experiment [1], the “Inhibition of IL-2 production (%), Hy1B” value was 59%. In experiment [2], the concentration for half-maximal inhibition (IC50) was above 1 mM.

As to AAKKYEAYAAAAAAA [synthetic peptide #68], the “Inhibition of IL-2 production (%), Hy1B” value in experiment [1] is 41%. Further, in experiment [2], the IC50 was above 1 mM.

As to EAEKYAAYAAAAAAA [synthetic peptide #71], in experiment [1], the “Inhibition of IL-2 production (%), Hy1B” value came to 25%. In addition, the IC50 in experiment [2] was above 1 mM.

As for AKEEYAAAAAAAAAA [synthetic peptide #38], in experiment [1], the “Inhibition of IL-2 production (%), Hy1B” value turned out to be 17%. Also, the half-maximal inhibitory concentration (IC50) in experiment [2] was above 1 mM.

As for EAKEYAAYAAAAAAA [synthetic peptide #74], the “Inhibition of IL-2 production (%), Hy1B” value in experiment [1] came to 22%. Also, in experiment [2], the IC50 was above 1 mM.

As to AEAKYAAYKAAAAAA [synthetic peptide #79], the “Inhibition of IL-2 production (%), Hy1B” value in experiment [1] was 50%. Moreover, the IC50 in experiment [2] is above 1 mM.

As for AAKEYAAYAAAAAAA [synthetic peptide #58], the “Inhibition of IL-2 production (%), Hy1B” value in experiment [1] came out at 16%. The concentration for half-maximal inhibition (IC50) in experiment [2] was above 1 mM.

On to EKAAYAAYKAAAAAA [synthetic peptide #87], for which the “Inhibition of IL-2 production (%), Hy1B” value in experiment [1] was found to be 40%. Further, the IC50 in experiment [2] is above 1 mM.

EKAEYAAYAAAAAAA [synthetic peptide #72]: the “Inhibition of IL-2 production (%), Hy1B” value in experiment [1] was determined as 39%. Further, the half-maximal inhibitory concentration (IC50) in experiment [2] is above 1 mM.

With EEKAYAAAAAAAAAA [synthetic peptide #105], in experiment [1], the “Inhibition of IL-2 production (%), Hy1B” value came to 36%. In addition, in experiment [2], the IC50 was above 1 mM.

For the molecule EAKAYAAYAAAAAAA [synthetic peptide #75], in experiment [1], the “Inhibition of IL-2 production (%), Hy1B” value stood at 19%. Further, in experiment [2], the IC50 is above 1 mM.

Turning to AKEAYAAYAAAAAAA [synthetic peptide #57], in experiment [1], the “Inhibition of IL-2 production (%), Hy1B” value came out at 0%. Further, in experiment [2], the IC50 was above 1 mM.

EKEAYAAYKAAAAAA [synthetic peptide #92]: the “Inhibition of IL-2 production (%), Hy1B” value in experiment [1] was 42%. For the same molecule, the 50% inhibitory concentration (IC50) in experiment [2] was above 1 mM.

In the case of AKEEYAAYAAAAAAA [synthetic peptide #62], the “Inhibition of IL-2 production (%), Hy1B” value in experiment [1] is 22%. Further, the IC50 in experiment [2] is above 1 mM.

In the case of AKKEYAAAAAAAAAA [synthetic peptide #37], in experiment [1], the “Inhibition of IL-2 production (%), Hy1B” value worked out at 5%. Also, the half-inhibitory concentration (IC50) in experiment [2] is above 1 mM.

Take AKAEYAAYAAAAAAA [synthetic peptide #59]: in experiment [1], the “Inhibition of IL-2 production (%), Hy1B” value worked out at 29%. For the same molecule, the half-inhibitory concentration (IC50) in experiment [2] is above 1 mM.

Regarding EAEAYAAYKAAAAAA [synthetic peptide #88], the “Inhibition of IL-2 production (%), Hy1B” value in experiment [1] turned out to be 55%. The IC50 in experiment [2] was above 1 mM.

Source of the values: US20060020109A1 (Harvard, published 2006).
